Test results: patent US20050288217A1 (UNIVERSITY OF NORTH CAROLINA AT CHAPEL HILL, published 2005)

T1: β3 integrin mutant in which the identical region of the β1 integrin was substituted for the 8 amino acid … (UniProt P05106 27-788)
T1 construct: whole, on cells; also called mutant protein; β3 mutant
T1 sequence (looked up): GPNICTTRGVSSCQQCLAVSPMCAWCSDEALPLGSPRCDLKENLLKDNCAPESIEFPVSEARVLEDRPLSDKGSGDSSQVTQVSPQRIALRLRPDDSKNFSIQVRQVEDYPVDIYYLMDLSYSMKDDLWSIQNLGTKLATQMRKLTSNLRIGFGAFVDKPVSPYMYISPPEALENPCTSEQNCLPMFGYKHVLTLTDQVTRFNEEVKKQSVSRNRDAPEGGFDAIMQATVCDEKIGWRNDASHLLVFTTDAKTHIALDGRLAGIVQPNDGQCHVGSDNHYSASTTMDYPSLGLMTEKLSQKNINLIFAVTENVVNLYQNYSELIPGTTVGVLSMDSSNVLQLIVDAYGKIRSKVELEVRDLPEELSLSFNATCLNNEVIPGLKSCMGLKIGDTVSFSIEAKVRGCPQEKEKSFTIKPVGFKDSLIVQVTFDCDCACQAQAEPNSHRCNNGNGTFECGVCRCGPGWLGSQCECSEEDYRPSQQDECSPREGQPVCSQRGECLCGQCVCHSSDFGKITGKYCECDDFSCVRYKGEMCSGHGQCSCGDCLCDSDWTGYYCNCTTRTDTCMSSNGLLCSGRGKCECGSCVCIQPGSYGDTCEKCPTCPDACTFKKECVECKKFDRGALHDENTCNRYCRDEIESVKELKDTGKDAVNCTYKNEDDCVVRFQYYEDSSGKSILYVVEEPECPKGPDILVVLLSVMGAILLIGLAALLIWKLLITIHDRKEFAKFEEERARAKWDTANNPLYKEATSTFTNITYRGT

B1: connective tissue growth factor (ligand, UniProt P29279 27-349, looked up)
chain: QNCSGPCRCPDEPAPRCPAGVSLVLDGCGCCRVCAKQLGELCTERDPCDPHKGLFCHFGSPANRKIGVCTAKDGAPCIFGGTVYRSGESFQSSCKYQCTCLDGAVGCMPLCSMDVRLPSPDCPFPRRVKLPGKCCEEWVCDEPKDQTVVGPALAAYRLEDTFGPDPTMIRANCLVQTTEWSACSKTCGMGISTRVTNDNASCRLEKQSRLCMVRPCEADLEENIKKGKKCIRTPKISKPIKFELSGCTSMKTYRAKFCGVCTDGRCCTPHRTTTLPVEFKCPDGEVMKKNMMFIKTCACHYNCPGDNDIFESLYYRKMYGDMA
B2: heparin binding epidermal growth factor (ligand, UniProt Q99075 63-148, looked up)
chain: DLQEADLDLLRVTLSSKPQALATPNKEEHGKRKKKGKGLGKKRDPCLRKYKDFCIHGECKYVKELRAPSCICHPGYHGERCHGLSL
B3: osteopontin (ligand)
chain: not shown
B4: vitronectin (ligand, UniProt P04004 20-478, looked up)
chain: DQESCKGRCTEGFNVDKKCQCDELCSYYQSCCTDYTAECKPQVTRGDVFTMPEDEYTVYDDGEEKNNATVHEQVGGPSLTSDLQAQSKGNPEQTPVLKPEEEAPAPEVGASKPEGIDSRPETLHPGRPQPPAEEELCSGKPFDAFTDLKNGSLFAFRGQYCYELDEKAVRPGYPKLIRDVWGIEGPIDAAFTRINCQGKTYLFKGSQYWRFEDGVLDPDYPRNISDGFDGIPDNVDAALALPAHSYSGRERVYFFKGKQYWEYQFQHQPSQEECEGSSLSAVFEHFAMMQRDSWEDIFELLFWGRTSAGTRQPQFISRDWHGVPGQVDAAMAGRIYISGMAPRPSLAKKQRFRHRNRKGYRSQRGHSRGRNQNSRRPSRATWLSLFSSEESNLGANNYDDYRMDWLVPATCEPIQSVFFFSGDKYYRVNLRTRRVDTVDPPYPRSIAQYWLGCPAPGHL

What follows are binders tested against T1, β3 integrin mutant in which the … (assay: binding assay on CHO cells expressing the mutant β3).

| binding result | Binder |
| --- | --- |
| no binding | B1 |
| no binding | B2 |
| no binding | B3 |
| no binding | B4 |
